Bridges are numbered along the chain shown (N, C = ends). Primed or numbered codes have the meaning given here. Where no end group is shown, it is not given here. The star is where a group is joined. DSS = disuccinimidyl suberate, reactive NHS group, O=C(CCCCCCC(=O)*)ON1C(=O)CCC1=O; DSG = disuccinimidyl glutarate, reactive NHS group, O=C(CCCC(=O)*)ON1C(=O)CCC1=O; Biotin = O=C1N[C@H]2[C@H](CS[C@H]2CCCCC(=O)*)N1; PEG4′ = not defined here

One assay addresses T1, human serum albumin (human, UniProt P02768 25-609).
T1 construct: also called HSA; HAS
Kind of assay: covalent labeling reaction, SDS-PAGE and Western blotting with SA-conjugated HRP.

In the next assay the target is T2, bovine serum albumin (bovine, UniProt P02769 25-607).
T2 construct: also called BSA
Kind of assay: ELISA, BSA used as blocking agent, biotinylated peptide detected with SA-HRP.

A further assay deals with T3, human IgG Fc (human, UniProt P01857-1 108-330 = IgG part).
T3 construct: domain: Fc; also called human IgG1 Fc
Kind of assay: X-ray crystallography of the Fc/IgG-binding peptide conjugate.

T2 sequence (P02769 25-607 limits assumed): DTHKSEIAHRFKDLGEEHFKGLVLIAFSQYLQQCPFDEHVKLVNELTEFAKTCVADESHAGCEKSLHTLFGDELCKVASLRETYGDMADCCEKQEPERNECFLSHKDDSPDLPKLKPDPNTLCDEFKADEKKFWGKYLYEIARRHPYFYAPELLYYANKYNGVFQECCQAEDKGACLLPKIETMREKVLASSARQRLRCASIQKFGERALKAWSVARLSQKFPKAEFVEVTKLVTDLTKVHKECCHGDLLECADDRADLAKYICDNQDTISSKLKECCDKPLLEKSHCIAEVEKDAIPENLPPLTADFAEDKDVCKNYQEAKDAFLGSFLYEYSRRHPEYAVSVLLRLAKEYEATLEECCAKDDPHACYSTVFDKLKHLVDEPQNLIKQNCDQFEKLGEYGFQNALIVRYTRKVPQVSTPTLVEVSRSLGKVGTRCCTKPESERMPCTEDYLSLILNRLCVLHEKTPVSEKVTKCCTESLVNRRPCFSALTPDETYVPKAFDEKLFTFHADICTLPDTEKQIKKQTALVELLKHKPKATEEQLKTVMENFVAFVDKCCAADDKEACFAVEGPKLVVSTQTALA

B1: N-terminally biotin-PEG4-added IgG-binding peptide (Type I(R8K)) modified with DSG (peptide)
peptide: {Biotin-PEG4′}-GDDCAYHK(DSG)GELVWCTFH-NH2
modifications: disulfide 4-14
notes: also called labeled reagent peptide
As to B1, in the assay with human serum albumin, the binding result is listed as “no binding”.

B2: N-terminally biotin-PEG4-added IgG-binding peptide (Type I(R8K)) modified with DSS (peptide)
peptide: {Biotin-PEG4′}-GDDCAYHK(DSS)GELVWCTFH-NH2
modifications: disulfide 4-14
notes: also called DSS R8K
Consider B2, for which the binding result in the assay with human serum albumin is “no binding”; with bovine serum albumin, “no binding (tested: molar ratio up to 10)”.

B3: cyclic homocysteine peptide G(HC)DCAYHRGELVWCT(HC)H-NH2 (peptide)
peptide: GXDCAYHRGELVWCTXH-NH2
modifications: disulfide 4-14, 2-16; not fully specified (residues 2, 16); printed as G(HC)DCAYHRGELVWCT(HC)H-NH2
Consider B3, for which the binding result in the assay with human IgG Fc is on record as “binds”.
